Measurements: article doi:10.1101/2025.03.29.646087

Target: SARS-CoV-2 nsp15 with H234A mutation and a N-terminal Strep-Tag II (SARS-CoV-2)
Assay: cryo-EM structure

With “SARS-CoV-2 nsp15 with H234A mutation and a N-terminal Strep-Tag II (enzyme)” the stoichiometry N was 6.
